Columns and labels:
[1] = molecular target: the molecule itself; assay: non-reducing SDS-PAGE with gel densitometry
[2] = molecular target: the molecule itself; assay: non-reducing SDS-PAGE with immunoblot
non-reducing SDS-PAGE = molecular target: the molecule itself; assay: non-reducing SDS-PAGE

B1: protein VI with the G48C mutation, in AdV VI-G48C particles (natural protein)
chain: AFSWGSLWSGIKNFCSTVKNYGSKAWNSSTGQMLRDKLKEQNFQQKVVDGLASGISGVVDLANQAVQNKINSKLDPRPPVEEPPPAVETVSPEGRGEKRPRPDREETLVTQIDEPPSYEEALKQGLPTTRPIAPMATGVLGQHTPVTLDLPPPADTQQKPVLPGPTAVVVTRPSRASLRRAASGPRSLRPVASGNWQSTLNSIVGL
modifications: intermolecular disulfide bond between protein VI molecules (in the dimer fraction)
[1]
  ratio of monomer:dimer: ~1.4 dimer per monomer
[2]
  stoichiometry N: 2

B2: recombinant VI114-G48C (protein VI residues 34-114 with G48C) (domain or fragment)
chain: AFSWGSLWSGIKNFCSTVKNYGSKAWNSSTGQMLRDKLKEQNFQQKVVDGLASGISGVVDLANQAVQNKINSKLDPRPPVE
modifications: intermolecular disulfide bond (in the dimer fraction)
non-reducing SDS-PAGE
  stoichiometry N: 2
